Results published in paper PMC4500542 (Cell reports, 2015).

Biological target: the molecule itself
Assay: SEC-MALS

B1: MBP-EBOV NP 1-367 (domain or fragment)
chain: MDSRPQKIWMAPSLTESDMDYHKILTAGLSVQQGIVRQRVIPVYQVNNLEEICQLIIQAFEAGVDFQESADSFLLMLCLHHAYQGDYKLFLESGAVKYLEGHGFRFEVKKRDGVKRLEELLPAVSSGKNIKRTLAAMPEEETTEANAGQFLSFASLFLPKLVVGEKACLEKVQRQIQVHAEQGLIQYPTAWQSVGHMMVIFRLMRTNFLIKFLLIHQGMHMVAGHDANDAVISNSVAQARFSGLLIVKTVLDHILQKTERGVRLHPLARTAKVKNEVNSFKAALSSLAKHGEYAPFARLLNLSGVNNLEHGLFPQLSAIALGVATAHGSTLAGVNVGEQYQQLREAATEAEKQLQQYAESRELDHLG
  binding result: binds
